Assay results reported in patent publication US20250381305A1, “METHOD FOR TREATING A PARKINSON'S DISEASE” (SINEUGENE THERAPEUTICS CO., LTD., priority 2022, published 2025).
Entries after “also recorded” stand apart in the source; their conditions may differ.

B1: coiled-coil single domain: TRIM72 truncation with the coiled-coil domain only, 135aa-232aa (probably SEQ ID NO: 5) (protein)
chain: QQKLQLQEACMRKEKSVAVLEHQLVEVEETVRQFRGAVGEQLGKMRVFLAALEGSLDREAERVRGEAGVALRRELGSLNSYLEQLRQMEKVLEEVADK
modifications: human TRIM72 coiled-coil domain (135-232 aa)
B2: Coiled-PRYSPRY: TRIM72 truncation with coiled-coil and PRYSPRY domains, expressed by scAAV9 (probably SEQ ID NO: 11) (protein)
chain: QQKLQLQEACMRKEKSVAVLEHQLVEVEETVRQFRGAVGEQLGKMRVFLAALEGSLDREAERVRGEAGVALRRELGSLNSYLEQLRQMEKVLEEVADKPQTEFLMKYCLVTSRLQKILAESPPPARLDIQLPIISDDFKFQVWRKMFRALMPALEELTFDPSSAHPSLVVSSSGRRVECSEQKAPPAGEDPRQFDKAVAVVAHQQLSEGEHYWEVDVGDKPRWALGVIAAEAPRRGRLHAVPSQGLWLLGLREGKILEAHVEAKEPRALRSPERRPTRIGLYLSFGDGVLSFYDASDADALVPLFAFHERLPRPVYPFFDVCWHDKGKNAQPLLLV
modifications: expressed by scAAV9; TRIM72 coiled-coil domain plus PRYSPRY domain (135-470aa)
B3: TRIM40: other TRIM protein overexpressed in N2a cell line by scAAV9 infection, as comparison (protein, UniProt Q3UWA4 1-246, looked up)
chain: MGSLDKDNQDICPICLDPLKEAVSTDCRHLFCRMCLTQHMDKASVSGILSCPVCRKPCSEGVLGDNYICHTHQKRVRRFCEASGHLLCEECLQSPEHQSHTELSIENAISHYKERLNRRSRKLRKDLGNLQQLKAQEKKMLQALQVDCECHRLRTDLQNQDQTKEQLKALPWHWLDQEDLPEEVAKIFSFSEAVTQLSILVSGLERMAKDLDASTLKDASDLLDRSAPQKLEGLLSRVSPAGPKLS
modifications: full-length
notes: other TRIM protein overexpressed in N2a cell line by scAAV9 infection, as comparison
B4: TRIM72: full-length TRIM72 protein with Ring finger, B-box, coiled-coil and PRYSPRY domains, overexpressed by lentivirus or scAAV9 (protein, listed as Homo sapiens)
chain: MSAAPGLLHQELSCPLCLQLFDAPVTAECGHSFCRACLGRVAGEPAADGTVLCPCCQAPTRPQALSTNLQLARLVEGLAQVPQGHCEEHLDPLSIYCEQDRALVCGVCASLGSHRGHRLLPAAEAHARLKTQLPQQKLQLQEACMRKEKSVAVLEHQLVEVEETVRQFRGAVGEQLGKMRVFLAALEGSLDREAERVRGEAGVALRRELGSLNSYLEQLRQMEKVLEEVADKPQTEFLMKYCLVTSRLQKILAESPPPARLDIQLPIISDDFKFQVWRKMFRALMPALEELTFDPSSAHPSLVVSSSGRRVECSEQKAPPAGEDPRQFDKAVAVVAHQQLSEGEHYWEVDVGDKPRWALGVIAAEAPRRGRLHAVPSQGLWLLGLREGKILEAHVEAKEPRALRSPERRPTRIGLYLSFGDGVLSFYDASDADALVPLFAFHERLPRPVYPFFDVCWHDKGKNAQPLLLVGPEGAEA
B5: PRYSPRY single domain: TRIM72 truncation with the PRYSPRY domain only, 278aa-470aa (probably SEQ ID NO: 6) (protein)
chain: RKMFRALMPALEELTFDPSSAHPSLVVSSSGRRVECSEQKAPPAGEDPRQFDKAVAVVAHQQLSEGEHYWEVDVGDKPRWALGVIAAEAPRRGRLHAVPSQGLWLLGLREGKILEAHVEAKEPRALRSPERRPTRIGLYLSFGDGVLSFYDASDADALVPLFAFHERLPRPVYPFFDVCWHDKGKNAQPLLLV
modifications: human TRIM72 PRYSPRY domain (278-470 aa)
B6: C242A: Flag-tagged TRIM72 mutant, cysteine at position 242 substituted by alanine; blocks oligomer formation (protein, UniProt Q1XH17 1-477, looked up, variant C242A)
Tripartite motif-containing …: MSAAPGLLRQELSCPLCLQLFDAPVTAECGHSFCRACLIRVAGEPAADGTVACPCCQAPTRPQALSTNLQLSRLVEGLAQVPQGHCEEHLDPLSIYCEQDRTLVCGVCASLGSHRGHRLLPAAEAQARLKTQLPQQKMQLQEACMRKEKTVAVLEHQLVEVEETVRQFRGAVGEQLGKMRMFLAALESSLDREAERVRGDAGVALRRELSSLNSYLEQLRQMEKVLEEVADKPQTEFLMKFALVTSRLQKILSESPPPARLDIQLPVISDDFKFQVWKKMFRALMPALEELTFDPSSAHPSLVVSSSGRRVECSDQKAPPAGEDTRQFDKAVAVVAQQLLSQGEHYWEVEVGDKPRWALGVMAADASRRGRLHAVPSQGLWLLGLRDGKILEAHVEAKEPRALRTPERPPARIGLYLSFADGVLAFYDASNPDVLTPIFSFHERLPGPVYPIFDVCWHDKGKNAQPLLLVGPEQEQA
modifications: Flag tag
B7: C14A: Flag-tagged TRIM72 mutant, cysteine at position 14 substituted by alanine; E3 ligase inactive (protein, UniProt Q1XH17 1-477, looked up, variant C14A)
Tripartite motif-containing …: MSAAPGLLRQELSAPLCLQLFDAPVTAECGHSFCRACLIRVAGEPAADGTVACPCCQAPTRPQALSTNLQLSRLVEGLAQVPQGHCEEHLDPLSIYCEQDRTLVCGVCASLGSHRGHRLLPAAEAQARLKTQLPQQKMQLQEACMRKEKTVAVLEHQLVEVEETVRQFRGAVGEQLGKMRMFLAALESSLDREAERVRGDAGVALRRELSSLNSYLEQLRQMEKVLEEVADKPQTEFLMKFCLVTSRLQKILSESPPPARLDIQLPVISDDFKFQVWKKMFRALMPALEELTFDPSSAHPSLVVSSSGRRVECSDQKAPPAGEDTRQFDKAVAVVAQQLLSQGEHYWEVEVGDKPRWALGVMAADASRRGRLHAVPSQGLWLLGLRDGKILEAHVEAKEPRALRTPERPPARIGLYLSFADGVLAFYDASNPDVLTPIFSFHERLPGPVYPIFDVCWHDKGKNAQPLLLVGPEQEQA
modifications: Flag tag

These molecules were tested on N2a cell line (assay: CCK-8 cell viability after H2O2 treatment, expression by scAAV9 infection). Details: scAAV9 infection MOI 10,000 vg/cell, H2O2 300 μM, 1 hour.
Format: cell-based
Procedure: (§1) Cell viability was assessed using CCK-8. Cells were seeded in a 96-well plate at a density of 1.5×10^3cells per well for Arsenite treatment or 7×10^3 cells per well for H2O2 treatment. Arsenite (Sigma) was added into each well at concentration of 0.125 mM, 0.25 mM or 0.5 mM, and washed the cells after 2 hours incubation at 37° C. For H2O2-treatment experiment, scAAV9 infection (estimated multiplicity of infection (MOI): 10,000 vg/cell) was done for 24 hours at 17 hours after cell seeding. Then, H2O2 was added into each well at concentration of 300 μM, and washed the cells after 1 hours incubation at 37° C. When the cell has been processed by Arsenite or H202. a total of 10 μL of CCK-8 solution (Yeasen) was added to each well. After another 2 hours of incubation at 37° C., the optical density (OD) value of each well was measured using a microplate reader with an excitation wavelength of 450 nm. The cell viability of 293 FT was calculated. The experiment was repeated at least three times to obtain the mean value.
To further investigate which key domains of TRIM72 protein are necessary to protect neurons, different domain-deleted TRIM72 were constructed and overexpressed in N2a cell line by scAAV9 infection (FIG. 1). CCK-8 was used to measure the cell viability after H2O2 treatment. Indeed, cell viability was decreased after H2O2 treatment (FIG. 10).
CCK-8 was used to measure the cell viability after H2O2 treatment.

| Molecule | cell viability under H2O2 stress (protective effect) |
| --- | --- |
| B1 | not the coiled-coil single domain was sufficient to protect cells from oxidative stress |
| B2 | sufficient to protect cells from oxidative stress |
| B3 | rather than TRIM40 elicit protective effects from oxidative stress |
| B4 | elicit protective effects from oxidative stress |
| B5 | sufficient to protect cells from oxidative stress |

The molecules below were run on 293 FT (assay: Cell viability after stress challenge, TRIM72 point mutants). Details: Flag-tagged point mutants vs wildtype; oxidative stress.
Format: cell-based
Procedure: For TRIM72 stable expression cell line construction, DNA fragments of the series of Flag-tagged TRIM72 mutants or domain deletion or single domain were amplified from the corresponding TRIM72 expression vector by PCR and inserted into pLJM1-EGFP lentiviral vector between BsrGI and EcoRI sites to generate the series of Flag-tagged TRIM72 mutants or domain deletion or single domain fused with EGFP in lentiviral vector.
as §1, with “When the cell has been processed by Arsenite or H202. a total of 10 μL of CCK-8 solution (Yeasen) was added to each well.” left out, “The experiment was repeated at least three times to obtain the mean value.” left out
Previous study determined that TRIM72 senses changes in the oxidative environment and forms oligomer complex to complete membrane repair. […]

| Molecule | cell viability after stress challenge (protective effect of TRIM72 mutants) |
| --- | --- |
| B6 | abolished the anti-stress effect of TRIM72; also recorded: blocked TRIM72 protective effect |
| B7 | reserved equal protective effect to wildtype |
